Test system: Nc1ncnc2c1ncn2[C@@H]1O[C@H](COP(=O)(O)O)[C@@H](O)[C@H]1O
Assay: purified protein
Details: 50 mM Tris-HCl, 5 mM MnCl2, pH 7.5, 37°C, 0.05 µM enzyme

Substance: SntA (Streptococcus suis BM407)
- Km (0-500 µM AMP): 13.67 µM

Substance: SntC (Streptococcus suis BM407)
- Km (0-500 µM AMP): 83.7 µM

Substance: SntD (Streptococcus suis BM407)
- Km (0-2000 µM AMP): 412.1 µM

Reference: paper PMC11407386, “Streptococcus suis 5’-nucleotidases contribute to adenosine-mediated immune evasion and virulence in a mouse model” (Virulence, 2024)
